[ ]: non-standard residue; d: D form.

This assay has as its target (7× His)-PSD-95-PDZ2 wild type (UniProt P78352). In words: FP competition.

Chain of (7× His)-PSD-95-PDZ2 wild type (P78352 160-246): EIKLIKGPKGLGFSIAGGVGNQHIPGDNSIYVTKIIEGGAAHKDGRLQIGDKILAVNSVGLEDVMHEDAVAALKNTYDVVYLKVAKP

Broadly, the Ki is the dissociation constant of the complex between target and ligand, obtained from inhibition or displacement. Read a low Ki as higher affinity. The molecule cyclo(THLETTFTGDGMPKTIRVTQ[dP]GQ) (ring closure inferred; not fully specified) [cyclic nNOS β-hairpin peptide T116M] showed a Ki of 3.76 µM and a Relative Ki (Ki mut/Ki WT) of 2.51.

Values taken from patent US20230220021A1, “CYCLIC PEPTIDE INHIBITORS OF PSD-95 AND USES THEREOF” (University of Copenhagen, priority 2020, published 2023).
